Values belong to the molecule of their own block, whether it stands above or below them.
What was measured:
[1] = in vivo, cited from earlier work
Protocol: Head ROI imaging protocols were initiated 2 hours after tracer injection, allowing 3–4 circulation half-lives; therefore, measured head fluorescence concentration was primarily indicative of the brain-accumulated/retained tracer, with small contribution of circulating tracer.

Abcg2 = molecular target: T1, Abcg2 (Mus musculus, UniProt Q7TMS5); assay: Time-domain in vivo optical imaging of head ROI, Abcg2-KO mice; conditions: i.v. injection, imaged 2–8 h, 4 animals per group
T1 construct: five pairs of adult wild-type and Abcg2^-KO mice were intravenously injected via the tail vein; tissue Taconic Farms Inc; host or cells: living FVB mice (head ROI / brain, blood-brain barrier)
T1 sequence (Q7TMS5 1-657): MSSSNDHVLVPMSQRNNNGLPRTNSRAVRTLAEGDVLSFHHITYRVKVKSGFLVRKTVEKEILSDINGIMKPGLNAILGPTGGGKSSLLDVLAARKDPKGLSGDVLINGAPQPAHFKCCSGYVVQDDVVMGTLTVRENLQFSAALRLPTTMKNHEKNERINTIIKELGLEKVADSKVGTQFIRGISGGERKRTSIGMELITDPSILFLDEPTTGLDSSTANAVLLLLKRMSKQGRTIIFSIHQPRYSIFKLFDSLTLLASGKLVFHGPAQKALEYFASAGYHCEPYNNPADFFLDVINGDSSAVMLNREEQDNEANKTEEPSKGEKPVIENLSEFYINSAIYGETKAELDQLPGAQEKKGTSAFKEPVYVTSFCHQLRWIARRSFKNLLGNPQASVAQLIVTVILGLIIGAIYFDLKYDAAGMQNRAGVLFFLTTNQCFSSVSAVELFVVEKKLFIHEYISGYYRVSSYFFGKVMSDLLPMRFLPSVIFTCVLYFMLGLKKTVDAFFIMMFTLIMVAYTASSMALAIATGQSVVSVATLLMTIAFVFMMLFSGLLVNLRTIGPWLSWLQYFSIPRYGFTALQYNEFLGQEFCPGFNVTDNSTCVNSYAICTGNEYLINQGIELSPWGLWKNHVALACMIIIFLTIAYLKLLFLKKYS
Source text: (§1) The experiments with animals have been approved by the Animal Care Committee of the National Research Council of Canada - Ottawa (NRC). Wild-type (wt), mdr-1a/b (Abcb1a/b) knockout (Abcb1^KO), and Abcg2^-KO mice of FVB background were purchased from the Taconic Farms Inc (New York, USA) and maintained in the NRC Animal Facility at Ottawa. Pairs of adult wild-type mice and Abcb1^-KO and pairs of adult wild-type and Abcg2^-KO mice of the same body weight and same sex were matched for injections and imaging experiments. After initial testing of fluorescence signal with various injected doses of Cy5.5-labeld Aβ peptides, the optimal dose selected for the experiments was 100 μg of labelled peptide in 200-μL volume. […]
(§2) Briefly, each animal was positioned on a platform (dorsal side facing up) that was then placed on a heated plate (at 36°C) in the imaging system. […] The fluorescence emission at 700 nm was collected by a highly sensitive photomultiplier tube offset by 3 mm for diffuse optical topography reconstruction. […] A pulsed light source and time-resolved detection allows the system to resolve the nanosecond timescale of fluorescence emission. […] The data were thus recorded as TPSF and the images were reconstructed as fluorescence concentration maps. […] Brains were then extracted and scanned ex-vivo for fluorescence concentration

[2] = system: mdr-1 P-glycoprotein/Abcb1; assay: Time-domain in vivo optical imaging of head ROI, Abcb1-KO mice; parameters: species or system mouse; conditions: i.v. injection, imaged 2–8 h, data not shown
Source text: as §1, §2

[3] = Time-domain in vivo optical imaging of head ROI, wild-type mice; parameters: species or system mouse; conditions: i.v. injection, imaged 2–8 h; wild-type and KO mice
Source text: as §1, §2

[4] = no reference given; cited from earlier work
Source text: To enable prospective in vivo optical imaging of the distribution of peripherally-injected Aβ peptides, the peptides were labeled with the near-infrared fluorescent dye Cy5.5. Since the principal aim of the present study was to monitor brain distribution of Cy5.5-labeled Aβ peptide in mice lacking major ABC transporters, the fluorescent tracer itself should not be the substrate for these transporters. To compare the permeability of BBB for Cy5.5 in wild-type, Abcb1^-KO and Abcg2^-KO animals, equal amounts of Cy5.5 tracer were intravenously injected into two pairs of wild-type and knockout mice ...

[5] = Aβ immunohistochemistry in brain sections (6E10 antibody); format: in vivo, mouse; conditions: 100 μg i.v., brains collected 8 h post-injection; wild-type and Abcg2-KO mice; 3 animals per group
Source text: The sections were also counter-stained with fluorescein-labeled lectin, Ulex europeaus agglutinin (UEA-I), as described to visualize cerebral vessels.

[6] = Serial whole-body imaging (biodistribution and systemic elimination); format: in vivo, mouse; conditions: 100 μg i.v.; wild-type, Abcg2-KO and Abcb1-KO mice
Protocol: The animals were anesthetized with inhaled isoflurane (4% for induction and 1.5% for maintenance) and the fur was shaved from the head and dorsal side of the body. The labeled peptides (100 μg) or Cy5.5 free dye (~78 μg) were injected intravenously (i.v.) via the tail vein. The animals were imaged at 2, 4, 6, and 8 h post-injection using the time-domain optical imager eXplore Optix 670 (GE Healthcare Systems/ART Inc). The imaging protocols were described in detail previously.
Briefly, each animal was positioned on a platform (dorsal side facing up) that was then placed on a heated plate (at 36°C) in the imaging system. The whole-body scan or selected region of interest (ROI) scan (i.e., head) was performed as described. […] The fluorescence emission at 700 nm was collected by a highly sensitive photomultiplier tube offset by 3 mm for diffuse optical topography reconstruction. […] A pulsed light source and time-resolved detection allows the system to resolve the nanosecond timescale of fluorescence emission. […] The data were thus recorded as TPSF and the images were reconstructed as fluorescence concentration maps. Average fluorescence concentration data from ROI placed around the heads were subsequently analyzed using the software ART Optix Optiview (ART Inc., Montreal, QC, Canada). […] Brains were then extracted and scanned ex-vivo for fluorescence concentration […]

[7] = Aβ-Cy5.5 conjugate stability in serum; format: in vitro ADME, bovine; conditions: 1:8 v/v, ~1 μg Aβ, 37°C, 0–8 h, Tricine-SDS-PAGE, optical imaging and 6E10 immunoblot
Protocol: To evaluate Aβ-Cy5.5 conjugate stability in serum, the labeled peptide (5-μL volume containing ~1 μg Aβ) was added to either 35 μL of (non-inactivated) FBS or 35 μL of 1 × PBS (1: 8 dilution) and incubated at 37°C for 0, 0.5, 1, 2, 4, 6, and 8 hours, respectively. The peptides (4 μL) from each of the above reactions (40 μL/reaction) were added to the loading buffer, boiled for 10 min, and resolved on a 16% Tricine-SDS-PAGE as described. The tricine-SDS-PAGE gel was scanned in the optical imager; the peptides in the gel were then transferred to a PVDF membrane for immuno-blotting. A mouse monoclonal anti-human Aβ antibody 6E10 (1:1000 dilution) and the secondary HRP-conjugated donkey anti-mouse IgG antibody (1:5000 dilution) were used for immunodetection. ECL plus detection reagents were applied to the blots and the blots were exposed to autoradiography films.

[8] = Western blot analysis of Aβ peptide solution (monomers/dimers); format: physicochemical; conditions: dissolved in 10 mM NaOH, HEPES to pH 8.0, data not shown
Protocol: Aβ1-40 peptide used in this study for optical imaging/tracking is the most abundant Aβ peptide found in the cerebral vasculature and is more soluble than Aβ1-42 peptide. Aβ1-40 peptides (1 mg/vial) were dissolved in 250 μL of 10 mM NaOH, and then 12.5 μL of 1 M HEPES [4-(2-hydroxyethyl)-1-piperazineethanesulfonic acid] was added to bring the pH to 8.0. The peptides were divided into 2 tubes (0.5 mg/tube) and kept at −80°C. Because Aβ peptides are commonly present as beta sheet structure in solution, Western blot analyses of the mixtures were performed, and the majority of the peptides (>95%) were monomers with a small proportion of dimers (data not shown). Aβ1-40 or scrambled Aβ40-1 peptides (0.5 mg, molecular weight 4329.86D) were labeled with the near-infrared fluorescent dye Cy5.5 (molecular weight 1128.42D) using the labeling kit (Cy5.5™ Mono NHS ester) as per manufacturer’s instructions.

Abcb1 and Abcg2 = system: Abcb1 and Abcg2; parameters: method as in PMID 22391220; conditions: in situ brain perfusion, Abcb1-deficient mice; cited from earlier work

Molecule: [^125I]-Aβ1-40: brain-injected 125I-labeled Aβ1-40 peptide, literature
Brain clearance t1/2 [1]: 25 min

Molecule: [^123I]-Aβ1-40: intracerebrally microinfused 123I-labeled Aβ1-40, literature SPECT study
Brain clearance short t1/2 (bi-phasic) ([1]; monkey): 1.1 ~ 2.7 hours

Head ROI fluorescence, wild-type versus Abcg2-KO (Abcg2): not different
Head ROI fluorescence, wild-type versus Abcb1-KO [2]: not different
Fluorescence in the head ROI after circulation time [3]: close to background
Molecule: Cy5.5
Plasma half-life [4]: about 30 min
Time in which majority of the dye is cleared from the body [4]: 2 h

Molecule: Cy5.5-labeled Aβ1-40: Synthetic human Aβ1-40 peptide labeled with the near-infrared fluorescent dye Cy5.5 (Mono NHS ester)
Immunoreactive Aβ in brain sections [5]: detected
Whole-body elimination of fluorescence [6]: almost complete disappearance of fluorescence from the body between 2 h and 4 h after injection
Stability of conjugate in PBS ([7]; 1 × PBS): no appreciable reductions of intact Aβ peptide bands
Stability of conjugate in serum ex vivo ([7]; non-inactivated FBS): mostly intact in the serum ex vivo up to 8 hours

Molecule: Aβ1-40: Synthetic human Aβ1-40 peptide purchased from Biopeptides Co.
Proportion of peptide present as monomers [8]: > 95%

Molecule: COc1cc2c(cc1OC)CN(CCc1ccc(NC(=O)c3cccc4c(=O)c5cccc(OC)c5[nH]c34)cc1)CC2 [GF120918]
Effect on brain uptake of [3H]-Aβ1-40 (Abcb1 and Abcg2): strongly enhanced
